From patent US20250282879A1 (CILAG GMBH INTERNATIONAL, published 2025) come the findings set out here.

Test [1] deals with T1, human IL-31-His (human, UniProt Q6EBC2 24-164).
T1 construct: captured via an anti-His tag antibody; also called human IL-31 (scFv SPR); not shown: His tag
T1 sequence (looked up): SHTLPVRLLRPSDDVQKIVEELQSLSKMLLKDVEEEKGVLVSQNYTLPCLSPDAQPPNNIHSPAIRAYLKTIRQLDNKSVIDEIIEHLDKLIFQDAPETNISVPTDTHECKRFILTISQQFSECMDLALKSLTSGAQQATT
In words: SPR, IL-31-His captured, scFv analyte, full titration mode. In general terms: In SPR one partner is held on a chip, and binding of the other changes the refractive index at the surface.

The target in test [2] is T1, human IL-31-His. As to the kind of experiment: SPR, IL-31-His captured, scFv analyte, screening mode. The protocol: (§1) Affinity of the two humanized scFvs to human and cynomolgus IL-31 was determined by SPR analysis on a T200 device (Biacore, GE Healthcare). Cynomolgus IL-31 was manufactured on demand by Sino Biological since it was not available commercially. Human and cynomolgus IL-31-His was captured via an anti-His tag antibody coupled to a carboxylmethylated dextran surface and the scFvs were injected as analyte. After each analyte injection cycle the sensor chip was regenerated and new antigen was captured. The scFvs were measured using a dose response multi-cycle kinetic assay in a high-throughput mode with two concentrations (30 and 10 nM) diluted in running buffer. Obtained sensorgrams were fitted using a 1:1 binding model.

The target in test [3] is T2, recombinant human IL-31 protein (Peprotech) (human, UniProt Q6EBC2 24-164).
T2 sequence (looked up): T1 sequence (looked up)
In words: cell-based or functional assay.

The target of test [4] is T2, recombinant human IL-31 protein …. As to the kind of experiment: competitive ELISA, hIL-31/hIL-31RA. On the procedure: Potency of the two humanized scFvs was further determined using a competitive ELISA. The potency of each scFv to inhibit the interaction between human IL-31 and human IL-31RA was assessed by an ELISA using the same procedure as described in EP20216938.9.
(ELISA stands for enzyme-linked immunosorbent assay.)

Test [5] has as its target T1, human IL-31-His. As to the kind of experiment: SPR, IL-31-His captured, scFv analyte (30 and 10 nM). On the procedure:
as §1
Affinity of PRO1643 and of the optimized anti-IL-31 scFvs to human IL-31 was determined by SPR analysis on a T200 device (Biacore, GE Healthcare), as described above in section 2.2.2. The scFvs were measured using a dose response multi-cycle kinetic assay in a high-throughput mode with two concentrations (30 and 10 nM) diluted in running buffer. Obtained sensorgrams were fitted using a 1:1 binding model.

Test [6] has as its target T2, recombinant human IL-31 protein …. As to the kind of experiment: cell-based or functional assay. The source holds these as a separate data set.
Test [7] addresses human IL-4R on cells (HEK-Blue IL-4/IL-13 cells, human PBMC, human whole blood) (human, UniProt P24394 26-825). As to the kind of experiment: cell-based or functional assay.
In test [8] the target is T3, human IL-4R (form not stated) (human, UniProt P24394 26-232, limits assumed).
T3 construct: whole entry named; also called hIL-4R
In words: competition ELISA, hIL-4/IL-4R (plate of PRO1899).

Test [9] concerns the target T3, human IL-4R (form not stated). In words: competition ELISA, hIL-4/IL-4R (plate of PRO1898).

Where two headings read alike, the source gives them in different places.

B1: PRO1643 (scFv, V domains shown)
VH: QSQLVESGGGLVQPGGSLRLSCAASGFSFSANYWICWVRQAPGKGLEWIVCIYIGSRADTYYAPWAKGRFTISKDNSKNTVYLQMNSLRAEDTAVYFCARFSSGIYDLDRFFLWGQGTLVTVSS
V domain: AFQLTQSPSSLSASVGDRVTITCQASQSIDSWLAWYQQKPGKPPKLLIYQASKLASGVPSRFSGSGSGTDYTLTISSLQPEDFATYYCQTYYGGGHIGWGFGTGTKVTV
notes: anti-IL-31 scFv, full graft; VL entry ends with LCDR3 (no FR4); also called 50-09-D07-sc03
One may read the Kd as the constant that tells how readily two partners part at equilibrium. A word on the koff: it is the rate constant with which the complex falls apart. As usually defined, the kon is the second-order rate constant of association. Read a low kon as slower complex formation. The term IC50 denotes the concentration at which inhibition is half-maximal. Turning to B1, the Kd stood at 0.63 nM in test [1], 0.505 nM in [2] and 1.13 nM in test [5]. Besides, the figures for the koff in test [1], in [2] and in [5] were 0.000516 s⁻¹, 0.000447 s⁻¹ and 0.000653 s⁻¹, respectively. Also, the results for the kon in [1], in [2] and in [5] were 820000 M⁻¹ s⁻¹, 884000 M⁻¹ s⁻¹ and 579000 M⁻¹ s⁻¹, respectively. Besides, the “IC50, neutralization of hIL-31-induced signaling in IL-31RA/OSMR dimerization assay” value in [3] came to 8.08 ng/mL; in test [6], 11.1 ng/mL. For the same molecule, the IC50 in [4] came out at 4.58 ng/mL.

B2: dupilumab (antibody, V domains shown)
VH: EVQLVESGGGLEQPGGSLRLSCAGSGFTFRDYAMTWVRQAPGKGLEWVSSISGSGGNTYYADSVKGRFTISRDNSKNTLYLQMNSLRAEDTAVYYCAKDRLSITIRPRYYGLDVWGQGTTVTVSS
VL: DIVMTQSPLSLPVTPGEPASISCRSSQSLLYSIGYNYLDWYLQKSGQSPQLLIYLGSNRASGVPDRFSGSGSGTDFTLKISRVEAEDVGFYYCMQALQTPYTFGQGTKLEIKR
As for B2, in test [7], the “IC50, neutralization of hIL-4 induced signaling, stat-6 reporter gene assay” value stood at 1.15 ng/mL and the “IC50, neutralization of hIL-13 induced signaling, stat-6 reporter gene assay” value worked out at 1 ng/mL. For the same molecule, the IC50 in test [8] was determined as 6.18 ng/mL. For the same molecule, the IC50 in test [9] was determined as 6.78 ng/mL.
